Consider 5 proteins from paper PMC12487280.

Data set [1] is described as follows: CHX-chase, Western blot, ccRCC cells. Conditions: glycan lost; control: WT / shCtrl / untreated. In general terms: A western blot detects proteins with antibodies after separation by electrophoresis.
A short description of data set [2]: Western blot of UBAP2L, ccRCC cells. To be noted: control: shCtrl / untreated.
The nature of data set [3]: qPCR, 786-O and Caki-1. Conditions: glycan lost; control: UBAP2L-WT overexpression. Background: Real-time PCR tracks product formation cycle by cycle.
Data set [4] is described as follows: Flag IP, HA-Ub blot, MG132. Conditions: control: shCtrl.

B1: UBAP2L: OGT knockdown (protein)
parent chain: MMTSVGTNRARGNWEQPQNQNQTQHKQRPQATAEQIRLAQMISDHNDADFEEKVKQLIDITGKNQDECVIALHDCNGDVNRAINVLLEGNPDTHSWEMVGKKKGVSGQKDGGQTESNEEGKENRDRDRDYSRRRGGPPRRGRGASRGREFRGQENGLDGTKSGGPSGRGTERGRRGRGRGRGGSGRRGGRFSAQGMGTFNPADYAEPANTDDNYGNSSGNTWNNTGHFEPDDGTSAWRTATEEWGTEDWNEDLSETKIFTASNVSSVPLPAENVTITAGQRIDLAVLLGKTPSTMENDSSNLDPSQAPSLAQPLVFSNSKQTAISQPASGNTFSHHSMVSMLGKGFGDVGEAKGGSTTGSQFLEQFKTAQALAQLAAQHSQSGSTTTSSWDMGSTTQSPSLVQYDLKNPSDSAVHSPFTKRQAFTPSSTMMEVFLQEKSPAVATSTAAPPPPSSPLPSKSTSAPQMSPGSSDNQSSSPQPAQQKLKQQKKKASLTSKIPALAVEMPGSADISGLNLQFGALQFGSEPVLSDYESTPTTSASSSQAPSSLYTSTASESSSTISSNQSQESGYQSGPIQSTTYTSQNNAQGPLYEQRSTQTRRYPSSISSSPQKDLTQAKNGFSSVQATQLQTTQSVEGATGSAVKSDSPSTSSIPPLNETVSAASLLTTTNQHSSSLGGLSHSEEIPNTTTTQHSSTLSTQQNTLSSSTSSGRTSTSTLLHTSVESEANLHSSSSTFSTTSSTVSAPPPVVSVSSSLNSGSSLGLSLGSNSTVTASTRSSVATTSGKAPPNLPPGVPPLLPNPYIMAPGLLHAYPPQVYGYDDLQMLQTRFPLDYYSIPFPTPTTPLTGRDGSLASNPYSGDLTKFGRGDASSPAPATTLAQPQQNQTQTHHTTQQTFLNPALPPGYSYTSLPYYTGVPGLPSTFQYGPAVFPVAPTSSKQHGVNVSVNASATPFQQPSGYGSHGYNTGVSVTSSNTGVPDISGSVYSKTQQSFEKQGFHSGTPAASFNLPSALGSGGPINPATAAAYPPAPFMHILTPHQQPHSQILHHHLQQDGQTGSGQRSQTSSIPQKPQTNKSAYNSYSWGAN
For B1, in data set [1], the degradation_or_half_life entry is given as “decreases”. In addition, the expression_or_secretion entry in data set [2] (glycan lost) was “decreases”.

B2: UBAP2L: UBAP2L-MUT (S305A) (protein)
parent chain: MMTSVGTNRARGNWEQPQNQNQTQHKQRPQATAEQIRLAQMISDHNDADFEEKVKQLIDITGKNQDECVIALHDCNGDVNRAINVLLEGNPDTHSWEMVGKKKGVSGQKDGGQTESNEEGKENRDRDRDYSRRRGGPPRRGRGASRGREFRGQENGLDGTKSGGPSGRGTERGRRGRGRGRGGSGRRGGRFSAQGMGTFNPADYAEPANTDDNYGNSSGNTWNNTGHFEPDDGTSAWRTATEEWGTEDWNEDLSETKIFTASNVSSVPLPAENVTITAGQRIDLAVLLGKTPSTMENDSSNLDPSQAPSLAQPLVFSNSKQTAISQPASGNTFSHHSMVSMLGKGFGDVGEAKGGSTTGSQFLEQFKTAQALAQLAAQHSQSGSTTTSSWDMGSTTQSPSLVQYDLKNPSDSAVHSPFTKRQAFTPSSTMMEVFLQEKSPAVATSTAAPPPPSSPLPSKSTSAPQMSPGSSDNQSSSPQPAQQKLKQQKKKASLTSKIPALAVEMPGSADISGLNLQFGALQFGSEPVLSDYESTPTTSASSSQAPSSLYTSTASESSSTISSNQSQESGYQSGPIQSTTYTSQNNAQGPLYEQRSTQTRRYPSSISSSPQKDLTQAKNGFSSVQATQLQTTQSVEGATGSAVKSDSPSTSSIPPLNETVSAASLLTTTNQHSSSLGGLSHSEEIPNTTTTQHSSTLSTQQNTLSSSTSSGRTSTSTLLHTSVESEANLHSSSSTFSTTSSTVSAPPPVVSVSSSLNSGSSLGLSLGSNSTVTASTRSSVATTSGKAPPNLPPGVPPLLPNPYIMAPGLLHAYPPQVYGYDDLQMLQTRFPLDYYSIPFPTPTTPLTGRDGSLASNPYSGDLTKFGRGDASSPAPATTLAQPQQNQTQTHHTTQQTFLNPALPPGYSYTSLPYYTGVPGLPSTFQYGPAVFPVAPTSSKQHGVNVSVNASATPFQQPSGYGSHGYNTGVSVTSSNTGVPDISGSVYSKTQQSFEKQGFHSGTPAASFNLPSALGSGGPINPATAAAYPPAPFMHILTPHQQPHSQILHHHLQQDGQTGSGQRSQTSSIPQKPQTNKSAYNSYSWGAN
As to B2, the “other: Melk mRNA level” value in data set [3] is given as “decreases”.

B3: UBAP2L: shOGT (protein)
parent chain: MMTSVGTNRARGNWEQPQNQNQTQHKQRPQATAEQIRLAQMISDHNDADFEEKVKQLIDITGKNQDECVIALHDCNGDVNRAINVLLEGNPDTHSWEMVGKKKGVSGQKDGGQTESNEEGKENRDRDRDYSRRRGGPPRRGRGASRGREFRGQENGLDGTKSGGPSGRGTERGRRGRGRGRGGSGRRGGRFSAQGMGTFNPADYAEPANTDDNYGNSSGNTWNNTGHFEPDDGTSAWRTATEEWGTEDWNEDLSETKIFTASNVSSVPLPAENVTITAGQRIDLAVLLGKTPSTMENDSSNLDPSQAPSLAQPLVFSNSKQTAISQPASGNTFSHHSMVSMLGKGFGDVGEAKGGSTTGSQFLEQFKTAQALAQLAAQHSQSGSTTTSSWDMGSTTQSPSLVQYDLKNPSDSAVHSPFTKRQAFTPSSTMMEVFLQEKSPAVATSTAAPPPPSSPLPSKSTSAPQMSPGSSDNQSSSPQPAQQKLKQQKKKASLTSKIPALAVEMPGSADISGLNLQFGALQFGSEPVLSDYESTPTTSASSSQAPSSLYTSTASESSSTISSNQSQESGYQSGPIQSTTYTSQNNAQGPLYEQRSTQTRRYPSSISSSPQKDLTQAKNGFSSVQATQLQTTQSVEGATGSAVKSDSPSTSSIPPLNETVSAASLLTTTNQHSSSLGGLSHSEEIPNTTTTQHSSTLSTQQNTLSSSTSSGRTSTSTLLHTSVESEANLHSSSSTFSTTSSTVSAPPPVVSVSSSLNSGSSLGLSLGSNSTVTASTRSSVATTSGKAPPNLPPGVPPLLPNPYIMAPGLLHAYPPQVYGYDDLQMLQTRFPLDYYSIPFPTPTTPLTGRDGSLASNPYSGDLTKFGRGDASSPAPATTLAQPQQNQTQTHHTTQQTFLNPALPPGYSYTSLPYYTGVPGLPSTFQYGPAVFPVAPTSSKQHGVNVSVNASATPFQQPSGYGSHGYNTGVSVTSSNTGVPDISGSVYSKTQQSFEKQGFHSGTPAASFNLPSALGSGGPINPATAAAYPPAPFMHILTPHQQPHSQILHHHLQQDGQTGSGQRSQTSSIPQKPQTNKSAYNSYSWGAN
In the case of B3, the “other: ubiquitination” value in data set [4] (glycan lost) is on record as “increases”.

B4: UBAP2L: OGA knockdown (protein)
parent chain: MMTSVGTNRARGNWEQPQNQNQTQHKQRPQATAEQIRLAQMISDHNDADFEEKVKQLIDITGKNQDECVIALHDCNGDVNRAINVLLEGNPDTHSWEMVGKKKGVSGQKDGGQTESNEEGKENRDRDRDYSRRRGGPPRRGRGASRGREFRGQENGLDGTKSGGPSGRGTERGRRGRGRGRGGSGRRGGRFSAQGMGTFNPADYAEPANTDDNYGNSSGNTWNNTGHFEPDDGTSAWRTATEEWGTEDWNEDLSETKIFTASNVSSVPLPAENVTITAGQRIDLAVLLGKTPSTMENDSSNLDPSQAPSLAQPLVFSNSKQTAISQPASGNTFSHHSMVSMLGKGFGDVGEAKGGSTTGSQFLEQFKTAQALAQLAAQHSQSGSTTTSSWDMGSTTQSPSLVQYDLKNPSDSAVHSPFTKRQAFTPSSTMMEVFLQEKSPAVATSTAAPPPPSSPLPSKSTSAPQMSPGSSDNQSSSPQPAQQKLKQQKKKASLTSKIPALAVEMPGSADISGLNLQFGALQFGSEPVLSDYESTPTTSASSSQAPSSLYTSTASESSSTISSNQSQESGYQSGPIQSTTYTSQNNAQGPLYEQRSTQTRRYPSSISSSPQKDLTQAKNGFSSVQATQLQTTQSVEGATGSAVKSDSPSTSSIPPLNETVSAASLLTTTNQHSSSLGGLSHSEEIPNTTTTQHSSTLSTQQNTLSSSTSSGRTSTSTLLHTSVESEANLHSSSSTFSTTSSTVSAPPPVVSVSSSLNSGSSLGLSLGSNSTVTASTRSSVATTSGKAPPNLPPGVPPLLPNPYIMAPGLLHAYPPQVYGYDDLQMLQTRFPLDYYSIPFPTPTTPLTGRDGSLASNPYSGDLTKFGRGDASSPAPATTLAQPQQNQTQTHHTTQQTFLNPALPPGYSYTSLPYYTGVPGLPSTFQYGPAVFPVAPTSSKQHGVNVSVNASATPFQQPSGYGSHGYNTGVSVTSSNTGVPDISGSVYSKTQQSFEKQGFHSGTPAASFNLPSALGSGGPINPATAAAYPPAPFMHILTPHQQPHSQILHHHLQQDGQTGSGQRSQTSSIPQKPQTNKSAYNSYSWGAN
With B4, the expression_or_secretion entry in data set [2] (glycan gained) is “increases”.

B5: UBAP2L: shOGA (protein)
parent chain: MMTSVGTNRARGNWEQPQNQNQTQHKQRPQATAEQIRLAQMISDHNDADFEEKVKQLIDITGKNQDECVIALHDCNGDVNRAINVLLEGNPDTHSWEMVGKKKGVSGQKDGGQTESNEEGKENRDRDRDYSRRRGGPPRRGRGASRGREFRGQENGLDGTKSGGPSGRGTERGRRGRGRGRGGSGRRGGRFSAQGMGTFNPADYAEPANTDDNYGNSSGNTWNNTGHFEPDDGTSAWRTATEEWGTEDWNEDLSETKIFTASNVSSVPLPAENVTITAGQRIDLAVLLGKTPSTMENDSSNLDPSQAPSLAQPLVFSNSKQTAISQPASGNTFSHHSMVSMLGKGFGDVGEAKGGSTTGSQFLEQFKTAQALAQLAAQHSQSGSTTTSSWDMGSTTQSPSLVQYDLKNPSDSAVHSPFTKRQAFTPSSTMMEVFLQEKSPAVATSTAAPPPPSSPLPSKSTSAPQMSPGSSDNQSSSPQPAQQKLKQQKKKASLTSKIPALAVEMPGSADISGLNLQFGALQFGSEPVLSDYESTPTTSASSSQAPSSLYTSTASESSSTISSNQSQESGYQSGPIQSTTYTSQNNAQGPLYEQRSTQTRRYPSSISSSPQKDLTQAKNGFSSVQATQLQTTQSVEGATGSAVKSDSPSTSSIPPLNETVSAASLLTTTNQHSSSLGGLSHSEEIPNTTTTQHSSTLSTQQNTLSSSTSSGRTSTSTLLHTSVESEANLHSSSSTFSTTSSTVSAPPPVVSVSSSLNSGSSLGLSLGSNSTVTASTRSSVATTSGKAPPNLPPGVPPLLPNPYIMAPGLLHAYPPQVYGYDDLQMLQTRFPLDYYSIPFPTPTTPLTGRDGSLASNPYSGDLTKFGRGDASSPAPATTLAQPQQNQTQTHHTTQQTFLNPALPPGYSYTSLPYYTGVPGLPSTFQYGPAVFPVAPTSSKQHGVNVSVNASATPFQQPSGYGSHGYNTGVSVTSSNTGVPDISGSVYSKTQQSFEKQGFHSGTPAASFNLPSALGSGGPINPATAAAYPPAPFMHILTPHQQPHSQILHHHLQQDGQTGSGQRSQTSSIPQKPQTNKSAYNSYSWGAN
Consider B5, for which the “other: ubiquitination” value in data set [4] (glycan gained) is “decreases”.
